Assay results as given in patent US20240189352A1 (MAX DELBR CK CENTRUM F R MOLEKULARE MEDIZIN IN DER …, published 2024).

B1: RAC2-T002 TCR (TCR, V domains shown)
V domain 1: AQSVTQLGSHVSVSEGALVLLRCNYSSSVPPYLFWYVQYPNQGLQLLLKYTTGATLVKGINGFEAEFKKSETSFHLTKPSAHMSDAAEYFCAVGANNLFFGTGTRLTVIP
V domain 2: EPEVTQTPSHQVTQMGQEVILRCVPISNHLYFYWYRQILGQKVEFLVSFYNNEISEKSEIFDDQFSVERPDGSNFTLKIRSTKLEDSAMYFCASSEWRGSSYNEQFFGPGTRLTVL
B2: RAC2-T001 TCR (TCR, V domains shown)
V domain 1: GENVEQHPSTLSVQEGDSAVIKCTYSDSASNYFPWYKQELGKGPQLIIDIRSNVGEKKDQRIAVTLNKTAKHFSLHITETQPEDSAVYFCAASMGNAGNMLTFGGGTRLMVKP
V domain 2: EPEVTQTPSHQVTQMGQEVILRCVPISNHLYFYWYRQILGQKVEFLVSFYNNEISEKSEIFDDQFSVERPDGSNFTLKIRSTKLEDSAMYFCASSETSGASYEQYFGPGTRLTVT

Legend:
[1] = biological target: wild-type RAC1/2 peptide presented by HLA-A2 (peptide-loaded T2 cells) (human); experiment: cell-based or functional assay
[2] = biological target: HLA-A2-restricted GNAZ peptide … presented by HLA-A2 (human); experiment: cell-based or functional assay

Binder | IFNγ production by TCR-transduced T cells (relative to unmodified RAC2^P29L) [1] | IFNγ production of T001 TCR-transduced T cells upon coculture with peptide-loaded T2 cells (relative to PMA and ionomycin maximum) [2]
B1 | 35% | –
B2 | – | ~30%
